Molecular target: Truncated rat Eag1 (rEag1Δ; Kv10.1 with residues 773-886 removed) (rat) (UniProt Q63472)
Assay: cryo-EM structure

stoichiometry N (CaM molecules per rEag1 tetramer): 4
Substance: calmodulin (from UniProt P0DP23 1-149) (natural protein)

From publication PMC5477842
